These results are taken from PMC12561426, “Dissecting the Interplay Between NRF2 and BACH1 at CsMBEs”.

Series [1] deals with BACH1 DBD of BACH1-sMafGχ;sMafG DBD of chimeras (Homo sapiens?;Homo sapiens?, UniProt O14867;O15525 511-627;1-162, |). The series is described as follows: EMSA; apparent; TEV and 3C cleaved; 150 mM NaCl, 50 mM HEPES pH 7.9, 10% glycerol, 1 mM TCEP, 1 mM DTT, 2 mM MgCl2; 3 nM DNA; TEV and 3C 50 ug/mL each, 4 h 25 °C; competition then O/N 4 °C; gels 4 °C in 1X TBE. Conditions: protein: recombinant;recombinant; tags: 3C/TEV-cleavable linker with His tags to sMafG;fused C-terminal of the linker; copies: 1;1; label: 5' fluorescein on forward strand; blunt.

Series [2] has as its target NRF2 DBD of NRF2-sMafGχ;sMafG DBD of chimeras (Homo sapiens?;Homo sapiens?, UniProt Q16236;O15525 451-567;1-162, |). The series is described as above. Particulars: protein: recombinant;recombinant; tags: 3C/TEV-cleavable linker with His tags to sMafG;fused C-terminal of the linker; copies: 1;1; label: 5' fluorescein on forward strand; blunt.

B1: HMOX1 CsMBE 30-mer (dsDNA)
DNA 1: CTCGGGACCGTGACTCAGCAGGAAAAACAC
DNA 2: GTGTTTTTCCTGCTGAGTCACGGTCCCGAG
Regarding B1, the Kd is 49 ± 1.9 nM in series [1] and 58 ± 3 nM in series [2].
